The values below come from patent US20250249113.

The subject of series [1] is Compound 1: AF-Arg-Lys(PEG4-Mal-Cys-Ac)-Phe-OH.
Series [2] concerns Compound 12: DM1-Mcc-Cit-Lys(PEG5-Ma-Cys-Ac)-Tyr-OH.
For series [3], the system named is Compound 7: DM1-Mal-Phe-Cit-Phe-Lys(PEG4-Mal-Cys-Ac)-OH.
The subject of series [4] is Compound 11: DM1-Mcc-Phe-Cit-Lys(PEG5-Ma-Cys-Ac)-Tyr-OH.
Series [5] relates to Compound 8: AF-Cit-Lys(PEG4-Mal-Cys-Ac)-Phe-OH.
The subject of series [6] is Compound 6: DM1-Mal-Phe-Cit-Lys(PEG4-Mal-Cys-Ac)-Phe-OH.
Series [7] concerns Compound 5: DM1-Mal-Phe-Lys-Lys(PEG4-Mal-Cys-Ac)-Phe-OH.
Series [8] concerns Compound 3: AF-Arg-Phe-Lys(PEG4-Mal-Cys-Ac)-OH.

On to recombinant human Cathepsin B, for which the Ratio (T1/2 Compound/T1/2 Reference), Cat B-induced cleavage in series [1] was found to be 0.12; in series [2], 4e-05; in series [3], 0.09; in series [4] it was 0.005; in series [5] it was 0.09; in series [6], 0.02. Further, the Ratio (T1/2 Compound/T1/2 Reference), Cat B-induced cleavage in series [7] is 0.05; in series [8], 0.11. Besides, the T1/2 Compound (min), Cat B-induced cleavage was 1.5 min in series [1]; 0.0004 min in series [2]; 1.2 min in series [3]; 0.06 min in series [4]; 1.1 min in series [5]; 0.3 min in series [6]. For the same substance, the results for the T1/2 Compound (min), Cat B-induced cleavage in series [7] and in series [8] were 0.6 min and 1.4 min, respectively. Further, the “T1/2 of cleavage by exo-Cat B” value was “compounds 11 and 12 are spontaneously cleaved by exo-Cat B (T1/2≤1 min)” in series [2]; “compounds 11 and 12 are spontaneously cleaved by exo-Cat B (T1/2≤1 min)” in series [4].
